# ± gives the standard deviation.
# Test: collision cross section of modified peptide (TIMS, N2, iRT-aligned); higher = larger / more extended gas-phase ion
# Description: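 1/K0 was aligned run-wise to spiked iRT peptides and converted to CCS in N2 (Mason-Schamp). Values are the mean of 1-3 technical replicates for the most abundant feature at each charge state.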
# [1] = charge state: 2, modification: hydroxyisobutyryl
# [2] = charge state: 3, modification: hydroxyisobutyryl
# [3] = charge state: 2, modification: Succinyl
# [4] = charge state: 2, modification: GlyGly (K)
# [5] = charge state: 3, modification: GlyGly (K)
# [6] = charge state: 3, modification: Methyl (R)
# [7] = charge state: 2, modification: Methyl (K)
# [8] = charge state: 3, modification: Methyl (K)
# [9] = charge state: 2, modification: Phospho (Y)
# [10] = charge state: 2, modification: Butyryl
# [11] = charge state: 3, modification: Butyryl
sequence,measurement,setting,value
VYIASSSGSTAIKK [_VYIASSSGSTAIK(hydroxyisobutyryl)K_],collision cross section,[1],417.04 ± 1.1 Å²
same,collision cross section,[2],511.39 ± 2 Å²
LLFSNTAAQKLR [_LLFSNTAAQK(Succinyl)LR_],collision cross section,[3],404.93 ± 0.55 Å²
same,collision cross section,"charge state: 3, modification: Succinyl",482.98 ± 3.3 Å²
DTPTSAGPNSFNKGK [_DTPTSAGPNSFNK(Succinyl)GK_],collision cross section,[3],411.39 ± 1.1 Å²
VMVAPISGSVTTGTK [_VMVAPIS(HexNAc (ST))GSVTTGTK_],collision cross section,"charge state: 2, modification: HexNAc (ST)",423.51 ± 0.62 Å²
IHVQSSSDSSDEPAEKR [_IHVQSSSDSSDEPAEK(hydroxyisobutyryl)R_],collision cross section,[1],455.71 ± 0.4 Å²
same,collision cross section,[2],514.66 ± 3.7 Å²
TQAYQDQKPGTSGLR [_TQAYQDQK(GlyGly (K))PGTSGLR_],collision cross section,[4],432.62 ± 1.4 Å²
same,collision cross section,[5],500.32 ± 0.35 Å²
TQAEGQGQGRGLGLVSAVR [_TQAEGQGQGR(Methyl (R))GLGLVSAVR_],collision cross section,[6],510.91 ± 2 Å²
KFGVLSDNFK [_K(Methyl (K))FGVLSDNFK_],collision cross section,[7],372.37 ± 0.47 Å²
same,collision cross section,[8],448.39 ± 4.9 Å²
VPTTEKPTVTVNFR [_VPTTEK(Methyl (K))PTVTVNFR_],collision cross section,[7],426.88 Å²
same,collision cross section,[8],510.49 ± 2 Å²
TVSKVDDFLANEAK [_TVSK(Trimethyl (K))VDDFLANEAK_],collision cross section,"charge state: 2, modification: Trimethyl (K)",424.19 ± 1.1 Å²
same,collision cross section,"charge state: 3, modification: Trimethyl (K)",482.88 ± 1.6 Å²
GSLGAQKLANTCFNEIEK [_GSLGAQK(Methyl (K))LANTCFNEIEK_],collision cross section,[8],509.24 Å²
DYSSGFGGKYGVQADR [_DYSSGFGGK(GlyGly (K))YGVQADR_],collision cross section,[4],440.03 ± 1.4 Å²
same,collision cross section,[5],489.79 ± 1.3 Å²
GEVGAGAGPGAQAGPSAKR [_GEVGAGAGPGAQAGPSAK(Dimethyl (K))R_],collision cross section,"charge state: 2, modification: Dimethyl (K)",422.35 ± 0.53 Å²
same,collision cross section,"charge state: 3, modification: Dimethyl (K)",490.58 ± 1.6 Å²
LQLEIDQKK [_LQLEIDQK(Biotin)K_],collision cross section,"charge state: 2, modification: Biotin",382.89 ± 0.23 Å²
TVSKVDDFLANEAK [_TVSK(Gluratylation)VDDFLANEAK_],collision cross section,"charge state: 2, modification: Glutarylation",427.28 ± 0.47 Å²
AAQASDLEKIHLDEK [_AAQASDLEK(Biotin)IHLDEK_],collision cross section,"charge state: 3, modification: Biotin",515.52 Å²
LSITGTYDLK [_LSITGTY(Phospho (Y))DLK_],collision cross section,[9],381.43 ± 0.65 Å²
VDIDVPDVNIEGPDAKLK [_VDIDVPDVNIEGPDAK(Methyl (K))LK_],collision cross section,[7],457.57 ± 0.42 Å²
same,collision cross section,[8],489.73 ± 3.2 Å²
STCTYVGAAK [_STCTY(Phospho (Y))VGAAK_],collision cross section,[9],346.22 ± 0.0011 Å²
LFVGGIKEDTEEHHLR [_LFVGGIK(Methyl (K))EDTEEHHLR_],collision cross section,[8],545.41 Å²
TQDQISNIKYHEEFEK [_TQDQISNIK(hydroxyisobutyryl)YHEEFEK_],collision cross section,[1],492.05 Å²
same,collision cross section,[2],557.98 ± 1.2 Å²
ALLQAKASGK [_ALLQAK(GlyGly (K))ASGK_],collision cross section,[4],355.61 ± 0.57 Å²
FDDTNPEKEEAK [_FDDTNPEK(GlyGly (K))EEAK_],collision cross section,[4],402.92 ± 5.6 Å²
same,collision cross section,[5],486.07 ± 0.34 Å²
LYAVHQEGNK [_LY(Nitro (Y))AVHQEGNK_],collision cross section,"charge state: 2, modification: Nitro (Y)",359.52 ± 0.17 Å²
same,collision cross section,"charge state: 3, modification: Nitro (Y)",458.4 ± 0.23 Å²
GVEAVGSYAENQR [_GVEAVGSY(Phospho (Y))AENQR_],collision cross section,[9],388.79 ± 0.77 Å²
same,collision cross section,"charge state: 3, modification: Phospho (Y)",472.71 ± 0.98 Å²
LTSLNVKYNNDK [_LTSLNVK(hydroxyisobutyryl)YNNDK_],collision cross section,[1],415.97 ± 0.31 Å²
FGTINIVHPKLGSYTK [_FGTINIVHPK(Methyl (K))LGSYTK_],collision cross section,[7],470.37 Å²
same,collision cross section,[8],541.06 ± 0.45 Å²
VYIASSSGSTAIKK [_VYIASSSGSTAIK(Butyryl)K_],collision cross section,[10],422.89 ± 0.77 Å²
same,collision cross section,[11],508.32 ± 2.9 Å²
DLSTVEALQNLKNLK [_DLSTVEALQNLK(Butyryl)NLK_],collision cross section,[10],484.29 ± 0.35 Å²
same,collision cross section,[11],550.2 Å²
SPDEAYAIAKK [_SPDEAYAIAK(Malonyl)K_],collision cross section,"charge state: 2, modification: Malonyl",371.15 ± 0.62 Å²
GRGAPPPPPSR [_GR(Methyl (R))GAPPPPPSR_],collision cross section,"charge state: 2, modification: Methyl (R)",339.22 Å²
same,collision cross section,[6],437.5 Å²
ISSNFSSIIAEKLR [_ISSNFSSIIAEK(Crotonyl)LR_],collision cross section,"charge state: 2, modification: Crotonyl",435.72 Å²

# — the supplement of paper PMC10598134
